We go through four molecules from article PMC5587591, “Enoyl-CoA hydratase-1 regulates mTOR signaling and apoptosis by sensing nutrients” (Nature Communications, 2017).

In one data set the target is T1, SIRT3 (Homo sapiens, UniProt Q9NTG7).
T1 construct: recombinant from E. coli (DE3)
T1 sequence (Q9NTG7 102-399): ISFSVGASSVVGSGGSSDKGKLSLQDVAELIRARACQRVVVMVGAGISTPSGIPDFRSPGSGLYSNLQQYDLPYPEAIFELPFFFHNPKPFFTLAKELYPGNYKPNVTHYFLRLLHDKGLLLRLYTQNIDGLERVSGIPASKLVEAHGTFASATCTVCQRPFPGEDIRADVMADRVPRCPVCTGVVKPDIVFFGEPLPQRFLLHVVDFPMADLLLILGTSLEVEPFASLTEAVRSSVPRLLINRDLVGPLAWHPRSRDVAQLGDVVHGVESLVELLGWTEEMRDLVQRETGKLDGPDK
Briefly: deacetylation of AcK101 ECHS1 peptide, MS. The format is biochemical. The conditions noted are these: 1 mM NAD+, 30 mM HEPES pH 7.0, 37 °C; acetylated 9-residue ECHS1 peptide as co-substrate.

Substrate in the data set “purified protein”: C/C=C/C(=O)SCCNC(=O)CCNC(=O)[C@H](O)C(C)(C)COP(=O)(O)OP(=O)(O)OC[C@H]1O[C@@H](n2cnc3c(N)ncnc32)[C@H](O)[C@@H]1OP(=O)(O)O
Nature of the data set: purified protein. The format is biochemical, Homo sapiens. The conditions noted are these: 50 mM Tris-HCl pH 8.0.

Consider `NC(=O)c1ccc[n+]([C@@H]2O[C@H](COP(=O)(O)OP(=O)(O)OC[C@H]3O[C@@H](n4cnc5c(N)ncnc54)[C@H](O)[C@@H]3O)[C@@H](O)[C@H]2O)c1` [NAD^+], for which, at SIRT3, the “deacetylation of AcK101 ECHS1 peptide, MS” value was “SIRT3 deacetylated synthetic AcK101-containing ECHS1 peptide in an NAD^+-dependent manner in vitro”.

B1: ECHS1 (enoyl-CoA hydratase-1) (Homo sapiens) (protein)
chain: ASGANFEYIIAEKRGKNNTVGLIQLNRPKALNALCDGLIDELNQALKTFEEDPAVGAIVLTGGDKAFAAGADIKEMQNLSFQDCYSSKFLKHWDHLTQVKKPVIAAVNGYAFGGGCELAMMCDIIYAGEKAQFAQPEILIGTIPGAGGTQRLTRAVGKSLAMEMVLTGDRISAQDAKQAGLVSKICPVETLVEEAIQCAEKIASNSKIVVAMAKESVNAAFEMTLTEGSKLEKKLFYSTFATDDRKEGMTAFVEKRKANFKDQ
Take B1: the Km in “purified protein” is 360 ± 180 µM.

B2: ECHS1 (enoyl-CoA hydratase-1) (Homo sapiens; K101Q) (protein)
chain: ASGANFEYIIAEKRGKNNTVGLIQLNRPKALNALCDGLIDELNQALKTFEEDPAVGAIVLTGGDKAFAAGADIQEMQNLSFQDCYSSKFLKHWDHLTQVKKPVIAAVNGYAFGGGCELAMMCDIIYAGEKAQFAQPEILIGTIPGAGGTQRLTRAVGKSLAMEMVLTGDRISAQDAKQAGLVSKICPVETLVEEAIQCAEKIASNSKIVVAMAKESVNAAFEMTLTEGSKLEKKLFYSTFATDDRKEGMTAFVEKRKANFKDQ
Regarding B2, in the data set “purified protein”, the Michaelis constant (Km) was 740 ± 430 µM.

B3: ECHS1 (enoyl-CoA hydratase-1) (Homo sapiens; K101R) (protein)
chain: ASGANFEYIIAEKRGKNNTVGLIQLNRPKALNALCDGLIDELNQALKTFEEDPAVGAIVLTGGDKAFAAGADIREMQNLSFQDCYSSKFLKHWDHLTQVKKPVIAAVNGYAFGGGCELAMMCDIIYAGEKAQFAQPEILIGTIPGAGGTQRLTRAVGKSLAMEMVLTGDRISAQDAKQAGLVSKICPVETLVEEAIQCAEKIASNSKIVVAMAKESVNAAFEMTLTEGSKLEKKLFYSTFATDDRKEGMTAFVEKRKANFKDQ
Turning to B3, the Km in “purified protein” turned out to be 300 ± 80 µM.
